In US6528625:

Key:
[1] = target: human CCR5 (untagged; endogenous on human leukocytes, parent of the CCR5/CCR2b chimeras, on U87-CD4-CCR5 cells) (human) (UniProt P51681); experiment: cell-based or functional assay
[2] = target: FLAG-tagged human CCR5 expressed on L1.2 murine pre-B lymphoma cells (human) (UniProt P51681); experiment: cell-based or functional assay
[3] = target: human CCR5 (untagged; endogenous on human leukocytes, parent of the CCR5/CCR2b chimeras, on U87-CD4-CCR5 cells) (human) (UniProt P51681); experiment: inhibition of ^125I-RANTES binding to activated T cells (CD3 blasts) by 10 µg/ml mAb
[4] = target: human CCR5 (untagged; endogenous on human leukocytes, parent of the CCR5/CCR2b chimeras, on U87-CD4-CCR5 cells) (human) (UniProt P51681); experiment: inhibition of ^125I-MIP-1α binding to activated T cells (CD3 blasts) by 10 µg/ml mAb

murine monoclonal antibody 2D7
percent inhibition of RANTES and MIP-1α chemotactic responses of T cell lines [1]: 60 to 80%
percent inhibition of chemotaxis of activated, IL-2 maintained T cells to MIP-1α [1]: 60 to 80%
mAb concentration giving complete inhibition of chemotaxis of CCR5 L1.2 cells to RANTES, MIP-1α and MIP-1β [2]: 20 µg/mL
percent inhibition of ^125I-RANTES binding [3]: 95%
percent inhibition of ^125I-MIP-1α binding [4]: 85%
